The target in this assay is T1, mMED15-FLAG (Flag-tagged mouse Med15) (mouse, UniProt Q924H2 1-789).
T1 sequence: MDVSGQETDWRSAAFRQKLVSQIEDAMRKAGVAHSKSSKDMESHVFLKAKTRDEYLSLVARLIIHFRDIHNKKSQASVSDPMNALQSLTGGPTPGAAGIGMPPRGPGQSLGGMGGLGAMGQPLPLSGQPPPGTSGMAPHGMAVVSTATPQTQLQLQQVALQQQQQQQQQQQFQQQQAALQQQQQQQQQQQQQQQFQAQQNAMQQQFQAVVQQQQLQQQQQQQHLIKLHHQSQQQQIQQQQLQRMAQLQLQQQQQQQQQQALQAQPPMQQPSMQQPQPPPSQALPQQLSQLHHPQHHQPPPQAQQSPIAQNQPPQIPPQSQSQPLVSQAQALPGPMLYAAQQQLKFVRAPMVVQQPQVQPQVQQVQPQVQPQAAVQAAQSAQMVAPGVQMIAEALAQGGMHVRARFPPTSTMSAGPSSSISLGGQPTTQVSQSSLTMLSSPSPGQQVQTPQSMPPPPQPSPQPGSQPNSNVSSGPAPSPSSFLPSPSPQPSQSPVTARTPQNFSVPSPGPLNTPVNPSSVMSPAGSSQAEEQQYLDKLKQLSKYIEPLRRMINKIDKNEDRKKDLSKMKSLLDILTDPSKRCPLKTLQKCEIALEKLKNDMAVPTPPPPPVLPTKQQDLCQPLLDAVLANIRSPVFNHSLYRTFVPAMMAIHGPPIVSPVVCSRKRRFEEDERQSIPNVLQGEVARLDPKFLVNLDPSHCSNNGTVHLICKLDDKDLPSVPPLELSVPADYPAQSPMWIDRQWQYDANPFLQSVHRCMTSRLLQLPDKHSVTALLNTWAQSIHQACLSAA
In words: pull-down.

B1: HA-mNKX6.1 (HA-tagged full-length mouse Nkx6-1) (natural protein)
chain: MLAVGAMEGPRQSAFLLSSPPLAALHSMAEMKTPLYPAAYPPLPTGPPSSSSSSSSSSSPSPPLGSHNPGGLKPPAAGGLSSLGSPPQQLSAATPHGINDILSRPSMPVASGAALPSASPSGSSSSSSSSASATSASAAAAAAAAAAAAAASSPAGLLAGLPRFSSLSPPPPPPGLYFSPSAAAVAAVGRYPKPLAELPGRTPIFWPGVMQSPPWRDARLACTPHQGSILLDKDGKRKHTRPTFSGQQIFALEKTFEQTKYLAGPERARLAYSLGMTESQVKVWFQNRRTKWRKKHAAEMATAKKKQDSETERLKGTSENEEDDDDYNKPLDPNSDDEKITQLLKKHKSSGGSLLLHASEAEGSS
For B1, the binding result is on record as “binds”.

(Values after paper PMC11461855 (Nature Communications, 2024).)
